Source: patent US20120276102A1 (Pfizer, published 2012)

Columns and labels:
[1] = target: human IL-21R expressed on cells (human, UniProt Q9HBE5 20-538); experiment: cell-based or functional assay
[2] = target: murine IL-21R expressed on cells (murine, UniProt Q9JHX3 20-529); experiment: cell-based or functional assay
[3] = target: T1, murine IL-21R extracellular domain His-Flag fusion protein (murine, UniProt Q9JHX3 20-237); experiment: competition ELISA; competitor plate-bound 18A5 IgG
T1 construct: Biotinylated in the ELISAs; also called mIL-21R-H/F; murine IL-21R-H/F
Protocol: Blocked plates were washed 3× with PBS, and 50 μl/well of scFv/IL-21R mixtures were transferred to the appropriate plates and incubated for 1 hr at RT. Plates were washed 5× with PBS prior to the addition of a 1:6000 dilution of horseradish peroxidase-conjugated streptavidin (Southern Biotech, Birmingham, Ala.) secondary antibody to detect bound biotinylated mIL-21R-H/F. Plates were then incubated for 1 hr at RT and washed 7× with PBS. Signal was developed using 3,3′,5,5′-tetramethylbenzidine (TMB), the reaction stopped with H₂SO₄, and the absorbance read at 450 nm on an ENVISION™ plate reader (Perkin Elmer).

Sequence of human IL-21R expressed on cells (Q9HBE5 20-538 limits assumed): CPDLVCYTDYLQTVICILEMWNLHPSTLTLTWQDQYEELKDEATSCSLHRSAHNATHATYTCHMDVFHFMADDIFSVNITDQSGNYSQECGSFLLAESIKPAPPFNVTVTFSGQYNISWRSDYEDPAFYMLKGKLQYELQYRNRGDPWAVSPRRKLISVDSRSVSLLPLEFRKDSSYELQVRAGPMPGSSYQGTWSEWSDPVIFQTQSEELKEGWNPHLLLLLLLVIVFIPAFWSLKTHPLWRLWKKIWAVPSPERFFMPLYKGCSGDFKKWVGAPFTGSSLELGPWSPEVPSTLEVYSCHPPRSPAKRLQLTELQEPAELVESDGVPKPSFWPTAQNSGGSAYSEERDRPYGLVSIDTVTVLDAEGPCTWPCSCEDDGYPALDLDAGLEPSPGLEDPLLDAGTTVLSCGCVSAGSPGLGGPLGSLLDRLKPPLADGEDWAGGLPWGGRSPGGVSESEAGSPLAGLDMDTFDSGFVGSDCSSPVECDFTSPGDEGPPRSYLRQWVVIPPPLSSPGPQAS

IC50, Human IL-21R-BaF3 Neutralization Assay [1] [nM]	IC50, Human IL-21R-TF1 Neutralization Assay [1] [nM]	IC50, Murine IL-21R-BaF3 Neutralization Assay [2] [nM]	IC50 [3] [nM]	Binder
7.7	98.1	25.7	14	scFv H3 (scFv) scFv: QVQLQESGPGLVKTSETLSLTCAVSGYSISSGYYWGWIRQPPGKGLEWIGSISHTGNTYYNPPLKSRVTISVDTSKNQFSLKLSSVTAADTAVYYCARFMGFGRPEYWGKGTLVTVSSGGGGSGGGGSGGGGSALSSELTQDPPVSVALGQTVTLTCQGDSLRTYYASWYQQKSGQAPILLLYGKHKRPSGIPDRFSGSTSGDTASLTITGAQAEDEADYYCNSRDSSGNPHVLFGGGTQLTVL
3.8	9.3	–	–	scFv H4 (scFv) scFv: QVQLQESGPGLVKTSETLSLTCAVSGYSISSGYYWGWIRQPPGKGLEWIGSISHTGNTYYNPPLKSRVTISVDTSKNQFSLKLSSVTAADTAVYYCARWLGFGRPEYWGKGTLVTVSSGGGGSGGGGSGGGGSALSSELTQDPPVSVALGQTVTLTCQGDSLRTYYASWYQQKSGQAPILLLYGKHKRPSGIPDRFSGSTSGDTASLTITGAQAEDEADYYCNSRDSSGNPHVLFGGGTQLTVL
3.1	37.5	2.41	5	scFv L2 (scFv) scFv: QVQLQESGPGLVKTSETLSLTCAVSGYSISSGYYWGWIRQPPGKGLEWIGSISHTGNTYYNPPLKSRVTISVDTSKNQFSLKLSSVTAADTAVYYCARGGGISRPEYWGKGTLVTVSSGGGGSGGGGSGGGGSALSSELTQDPPVSVALGQTVTLTCQGDSLRTYYASWYQQKSGQAPILLLYGKHKRPSGIPDRFSGSTSGDTASLTITGAQAEDEADYYCVARSVVGNPHVLFGGGTQLTVL
2.8	27.7	3.61	7	scFv L9 (scFv) scFv: QVQLQESGPGLVKTSETLSLTCAVSGYSISSGYYWGWIRQPPGKGLEWIGSISHTGNTYYNPPLKSRVTISVDTSKNQFSLKLSSVTAADTAVYYCARGGGISRPEYWGKGTLVTVSSGGGGSGGGGSGGGGSALSSELTQDPPVSVALGQTVTLTCQGDSLRTYYASWYQQKSGQAPILLLYGKHKRPSGIPDRFSGSTSGDTASLTITGAQAEDEADYYCVARSNKGNPHVLFGGGTQLTVL
5.9	~150	0.29	4	scFv L6 (scFv) scFv: QVQLQESGPGLVKTSETLSLTCAVSGYSISSGYYWGWIRQPPGKGLEWIGSISHTGNTYYNPPLKSRVTISVDTSKNQFSLKLSSVTAADTAVYYCARGGGISRPEYWGKGTLVTVSSGGGGSGGGGSGGGGSALSSELTQDPPVSVALGQTVTLTCQGDSLRTYYASWYQQKSGQAPILLLYGKHKRPSGIPDRFSGSTSGDTASLTITGAQAEDEADYYCMSRSIWGNPHVLFGGGTQLTVL
2.1	~60	–	8	scFv L4 (scFv) scFv: QVQLQESGPGLVKTSETLSLTCAVSGYSISSGYYWGWIRQPPGKGLEWIGSISHTGNTYYNPPLKSRVTISVDTSKNQFSLKLSSVTAADTAVYYCARGGGISRPEYWGKGTLVTVSSGGGGSGGGGSGGGGSALSSELTQDPPVSVALGQTVTLTCQGDSLRTYYASWYQQKSGQAPILLLYGKHKRPSGIPDRFSGSTSGDTASLTITGAQAEDEADYYCSTRSSKGNPHVLFGGGTQLTVL
15.1	7	–	40	scFv L10 (scFv) scFv: QVQLQESGPGLVKTSETLSLTCAVSGYSISSGYYWGWIRQPPGKGLEWIGSISHTGNTYYNPPLKSRVTISVDTSKNQFSLKLSSVTAADTAVYYCARGGGISRPEYWGKGTLVTVSSGGGGSGGGGSGGGGSALSSELTQDPPVSVALGQTVTLTCQGDSLRTYYASWYQQKSGQAPILLLYGKHKRPSGIPDRFSGSTSGDTASLTITGAQAEDEADYYCISRSIYGNPHVLFGGGTQLTVL
3.7	~55	28.8	7	scFv L1 (scFv) scFv: QVQLQESGPGLVKTSETLSLTCAVSGYSISSGYYWGWIRQPPGKGLEWIGSISHTGNTYYNPPLKSRVTISVDTSKNQFSLKLSSVTAADTAVYYCARGGGISRPEYWGKGTLVTVSSGGGGSGGGGSGGGGSALSSELTQDPPVSVALGQTVTLTCQGDSLRTYYASWYQQKSGQAPILLLYGKHKRPSGIPDRFSGSTSGDTASLTITGAQAEDEADYYCASRSVSGNPHVLFGGGTQLTVL
1.5	15.3	–	12	scFv L23 (scFv) scFv: QVQLQESGPGLVKTSETLSLTCAVSGYSISSGYYWGWIRQPPGKGLEWIGSISHTGNTYYNPPLKSRVTISVDTSKNQFSLKLSSVTAADTAVYYCARGGGISRPEYWGKGTLVTVSSGGGGSGGGGSGGGGSALSSELTQDPPVSVALGQTVTLTCQGDSLRTYYASWYQQKSGQAPILLLYGKHKRPSGIPDRFSGSTSGDTASLTITGAQAEDEADYYCSARSVRGNPHVLFGGGTQLTVL
2.1	~20	38.5	7	scFv L5 (scFv) scFv: QVQLQESGPGLVKTSETLSLTCAVSGYSISSGYYWGWIRQPPGKGLEWIGSISHTGNTYYNPPLKSRVTISVDTSKNQFSLKLSSVTAADTAVYYCARGGGISRPEYWGKGTLVTVSSGGGGSGGGGSGGGGSALSSELTQDPPVSVALGQTVTLTCQGDSLRTYYASWYQQKSGQAPILLLYGKHKRPSGIPDRFSGSTSGDTASLTITGAQAEDEADYYCASRSSKGNPHVLFGGGTQLTVL
2.6	54.9	87.8	8	scFv L12 (scFv) scFv: QVQLQESGPGLVKTSETLSLTCAVSGYSISSGYYWGWIRQPPGKGLEWIGSISHTGNTYYNPPLKSRVTISVDTSKNQFSLKLSSVTAADTAVYYCARGGGISRPEYWGKGTLVTVSSGGGGSGGGGSGGGGSALSSELTQDPPVSVALGQTVTLTCQGDSLRTYYASWYQQKSGQAPILLLYGKHKRPSGIPDRFSGSTSGDTASLTITGAQAEDEADYYCVARGTRGNPHVLFGGGTQLTVL
4.1	51.3	715	7	scFv L8 (scFv) scFv: QVQLQESGPGLVKTSETLSLTCAVSGYSISSGYYWGWIRQPPGKGLEWIGSISHTGNTYYNPPLKSRVTISVDTSKNQFSLKLSSVTAADTAVYYCARGGGISRPEYWGKGTLVTVSSGGGGSGGGGSGGGGSALSSELTQDPPVSVALGQTVTLTCQGDSLRTYYASWYQQKSGQAPILLLYGKHKRPSGIPDRFSGSTSGDTASLTITGAQAEDEADYYCTTRSTQGNPHVLFGGGTQLTVL
13.8	~150	–	13	scFv H6 (scFv) scFv: QVQLQESGPGLVKTSETLSLTCAVSGYSISSGYYWGWIRQPPGKGLEWIGSISHTGNTYYNPPLKSRVTISVDTSKNQFSLKLSSVTAADTAVYYCARFFGFGRPEYWGKGTLVTVSSGGGGSGGGGSGGGGSALSSELTQDPPVSVALGQTVTLTCQGDSLRTYYASWYQQKSGQAPILLLYGKHKRPSGIPDRFSGSTSGDTASLTITGAQAEDEADYYCNSRDSSGNPHVLFGGGTQLTVL
7.9	178	53.7	17	scFv H5 (scFv) scFv: QVQLQESGPGLVKTSETLSLTCAVSGYSISSGYYWGWIRQPPGKGLEWIGSISHTGNTYYNPPLKSRVTISVDTSKNQFSLKLSSVTAADTAVYYCARFLGFGRPEYWGKGTLVTVSSGGGGSGGGGSGGGGSALSSELTQDPPVSVALGQTVTLTCQGDSLRTYYASWYQQKSGQAPILLLYGKHKRPSGIPDRFSGSTSGDTASLTITGAQAEDEADYYCNSRDSSGNPHVLFGGGTQLTVL
4.2	38.3	10	6	scFv L11 (scFv) scFv: QVQLQESGPGLVKTSETLSLTCAVSGYSISSGYYWGWIRQPPGKGLEWIGSISHTGNTYYNPPLKSRVTISVDTSKNQFSLKLSSVTAADTAVYYCARGGGISRPEYWGKGTLVTVSSGGGGSGGGGSGGGGSALSSELTQDPPVSVALGQTVTLTCQGDSLRTYYASWYQQKSGQAPILLLYGKHKRPSGIPDRFSGSTSGDTASLTITGAQAEDEADYYCSSRSRHGNPHVLFGGGTQLTVL
27.6	~7	13.8	100	scFv L3 (scFv) scFv: QVQLQESGPGLVKTSETLSLTCAVSGYSISSGYYWGWIRQPPGKGLEWIGSISHTGNTYYNPPLKSRVTISVDTSKNQFSLKLSSVTAADTAVYYCARGGGISRPEYWGKGTLVTVSSGGGGSGGGGSGGGGSALSSELTQDPPVSVALGQTVTLTCQGDSLRTYYASWYQQKSGQAPILLLYGKHKRPSGIPDRFSGSTSGDTASLTITGAQAEDEADYYCVSRAVVGNPHVLFGGGTQLTVL
